Laboratory results reported in paper doi:10.1101/2024.11.27.625426 (bioRxiv, 2024).

Tests used:
[1] = target: sNAp of A/Vietnam/1203/2004 (VN04, H5N1) NA (Influenza A virus A/Vietnam/1203/2004 …, UniProt Q6DPL2, stabilised); test: ELISA; conditions: both partners purified
[2] = target: T1, N1-CA09-sNAp, stabilized neuraminidase protein of A/California/04/2009 (H1N1) (Influenza A virus A/California/04/2009 …, stabilised); test: cryo-EM structure; conditions: both partners purified
T1 chain: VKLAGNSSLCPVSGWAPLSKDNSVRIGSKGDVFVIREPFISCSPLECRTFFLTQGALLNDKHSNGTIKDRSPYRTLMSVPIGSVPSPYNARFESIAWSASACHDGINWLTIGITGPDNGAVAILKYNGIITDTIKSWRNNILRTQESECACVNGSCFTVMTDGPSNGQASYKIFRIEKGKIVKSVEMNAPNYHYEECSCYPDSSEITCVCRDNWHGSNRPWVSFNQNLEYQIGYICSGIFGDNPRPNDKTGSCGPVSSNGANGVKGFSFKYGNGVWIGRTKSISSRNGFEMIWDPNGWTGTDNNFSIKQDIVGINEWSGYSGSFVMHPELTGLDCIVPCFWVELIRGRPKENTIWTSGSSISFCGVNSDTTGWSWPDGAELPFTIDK

B1: NCS.1.1 mAb (IgG) (antibody, V domains shown)
VH: QVQLQESGPRLVKPSETLSLTCSVSGESISSGGYYWTWIRQHPGKGLEWIGNIFDTGSTDYSPSLKTRLTISIDTSKNQFYLRLNSATAADTAVYYCARVGFSLETDRPYYLGLDVWGQGTTVTVSS
VL: DIVMTQSPLSLPVTPGEPASISCRSSQSLLHSNGYTYLDWYLQKPGQSPQLLISFTSNRASGVPDRFSGSGSGTYFTLKISRVEAEDVGVYYCMQAVQTPWTFGQGTKVEIK
notes: copies: 2 + 2
B1: binds [1].

B2: NCS.1.1 Fab (Fab, V domains shown)
VH: QVQLQESGPRLVKPSETLSLTCSVSGESISSGGYYWTWIRQHPGKGLEWIGNIFDTGSTDYSPSLKTRLTISIDTSKNQFYLRLNSATAADTAVYYCARVGFSLETDRPYYLGLDVWGQGTTVTVSS
VL: DIVMTQSPLSLPVTPGEPASISCRSSQSLLHSNGYTYLDWYLQKPGQSPQLLISFTSNRASGVPDRFSGSGSGTYFTLKISRVEAEDVGVYYCMQAVQTPWTFGQGTKVEIK
In the case of B2, the “stoichiometry N” value [2] is reported as 4 Fabs per NA tetramer.

B3: NCS.1.3 mAb (IgG) (antibody, V domains shown)
VH: QVQLQESGPRLVKPSETLSLTCSVSGESISSGGYYWTWIRQHPGKGLEWIGNIFDTGSTDYSPSLKTRLTISIDTSKNQFYLRLTSATAADTAVYYCARVGFSLETDRPYYLGLDVWGQGTTVTVSS
VL: DIVMTQSPLTLPVTPGEPASISCRSSQSLLHSNGYTYLDWYLQKPGQSPQLLIYFASNRASGVPDRFSGSGSGTYFTLKISRVEAEDVGVYYCMQAVQSPWTFGQGTKVEIK
notes: copies: 2 + 2
B3: binds [1].
